The series deals with the molecule itself. As to the kind of experiment: crystal structure; crystals of free human Nudt16 (2.3 Å, with 100 mM MES pH 5.5) and of Nudt16 incubated with 5 mM FAD (2.7 Å); sitting drop at 20°C, 0.2 M ammonium chloride, 20% PEG 3350.

B1: human Nudt16 (residues 1-184) (enzyme, UniProt Q96DE0 1-184, looked up)
chain: MAGARRLELGEALALGSGWRHACHALLYAPDPGMLFGRIPLRYAILMQMRFDGRLGFPGGFVDTQDRSLEDGLNRELREELGEAAAAFRVERTDYRSSHVGSGPRVVAHFYAKRLTLEELLAVEAGATRAKDHGLEVLGLVRVPLYTLRDGVGGLPTFLENSFIGSAREQLLEALQDLGLLQSG
notes: Nudt16, human, residues 1-184, cloned into a modified pET28a vector; Seen as a dimer in both crystal forms, free and with FAD; PDB 3COU is the cited search model for molecular replacement; also called free human Nudt16; source: E. coli BL21(DE3), purified (Ni-NTA, UlpI cleavage, heparin column, Sephacryl S-200); not shown: His6, N-terminal, cleaved; yeast SMT3 SUMO, N-terminal, cleaved
Regarding B1, the binding result is recorded as “binds”.

The record behind these values is article PMC7337524, “Mammalian Nudix proteins cleave nucleotide metabolite caps on RNAs” (Nucleic Acids Research, 2020).
